Reference: article PMC9792514, “C-type lectin-like receptor (CLEC)-2, the ligand of podoplanin, induces morphological changes in podocytes” (Scientific Reports, 2022)
Blank lines part the entries; values can stand above or below the molecule they belong to.

What was measured:
[1] = biological target: Fc protein (control); assay: native gel or EMSA; Blue Native PAGE of the purified recombinant proteins in aqueous solution
[2] = biological target: T1, mouse podoplanin (PDPN) (mouse (endogenous in primary cultured …, UniProt Q62011 23-172)); assay: cell-based or functional assay
T1 sequence (looked up): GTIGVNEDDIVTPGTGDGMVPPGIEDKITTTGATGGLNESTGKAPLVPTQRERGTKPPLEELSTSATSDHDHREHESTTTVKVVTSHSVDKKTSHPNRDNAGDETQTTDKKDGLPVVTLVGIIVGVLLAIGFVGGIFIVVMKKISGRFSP

stoichiometry N [1]: 4
Molecule: Fc protein (control) (domain or fragment)

pERM/ERM ratio by Western blot of glomerular lysate after infusion of FLAG-CLEC-2 (5 ug/g body weight), against controls [2]: 0.65 fold
B1: StepTagII-3FLAG-CLEC-2, a fusion of StrepTactin FLAG double tags and the C-terminal extracellular domain of mouse CLEC-2 (51-229) (domain or fragment, UniProt Q9JL99 51-229, looked up)
chain: GIMSVTQQKYLLAEKENLSATLQQLAKKFCQELIRQSEIKTKSTFEHKCSPCATKWRYHGDSCYGFFRRNLTWEESKQYCTEQNATLVKTASQSTLDYIAERITSVRWIGLSRQNSKKDWMWEDSSVLRKNGINLSGNTEENMNCAYLHNGKIHPASCKERHYLICERNAGMTRVDQLL
